Percent decrease of C4bp binding to MS11 (C4b in 60-fold molar excess), percent decrease of binding in 575 mM NaCl and percent decrease of binding with 125 units of heparin data for 2 substances are collected here from PMC2195916.

The target of assay [1] is C4b-binding protein (C4bp) (human) (UniProt P04003). Briefly: flow cytometry on cells.
Assay [2] addresses Por1B of N. gonorrhoeae strain MS11 (Neisseria gonorrhoeae strain MS11). Kind of assay: flow cytometry on cells.

A value given as a limit tells only on which side of the number the result lay.

On to C4b (natural protein), for which, in assay [1], the percent decrease of C4bp binding to MS11 (C4b in 60-fold molar excess) came to 50%. In assay [2], “C4b-binding protein (C4bp) (from UniProt P04003 49-597; P20851 18-252) (complex)” showed a percent decrease of binding in 575 mM NaCl of 85% and a percent decrease of binding with 125 units of heparin above 90%.
